Here are results for eight molecules from patent US20250340646A1 (ELPIS BIOPHARMACEUTICALS, published 2025).

By Kd is commonly meant the constant that tells how readily two partners part at equilibrium. In general, IC50 refers to the concentration that inhibits the measured activity by half. A high value points to lower potency. One may read the EC50 as the concentration at which the effect is half-maximal.

The target of assay [1] is T1, recombinant His-tagged human IL-2Rβ (human, UniProt P14784 27-240, limits assumed).
T1 construct: also called IL-2Rβ-HIS; IL-15Rβ-HIS
T1 sequence (looked up): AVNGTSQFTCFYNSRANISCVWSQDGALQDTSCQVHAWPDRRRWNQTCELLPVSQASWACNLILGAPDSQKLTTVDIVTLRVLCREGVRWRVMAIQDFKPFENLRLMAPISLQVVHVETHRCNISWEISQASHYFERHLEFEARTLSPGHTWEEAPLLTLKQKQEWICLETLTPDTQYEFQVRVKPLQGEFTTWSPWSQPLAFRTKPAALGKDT
Put plainly: SPR, Protein A capture, IL-2Rβ-HIS analyte. The method, then:
(§1) The assay was run with Biacore T200 control software version 2.0. For each cycle, 1 μg/mL of anti-hPD-L1/IL-2 was captured for 60 seconds at flow rate of 10 μL/min on flow cell 2 in 1×HBSP buffer on Protein A sensor chip. […] The flow cells were then regenerated with Glycine pH2 for 60 seconds at flow rate of 30 μL/min. […] The specific binding response unit was derived from subtraction of binding to reference flow cell 1 from antibody captured flow cell 2.
(SPR reads the build-up and loss of mass on a sensor chip optically.)

Assay [2] concerns the target T2, PD-L1 biotinylated (PD-1/PD-L1 TR-FRET assay kit, BPS 72038) (Homo sapiens (Human), UniProt Q9NZQ7 19-238, biotinylated; site not stated).
T2 construct: Kit reagent
Put plainly: HTRF competition, competitor PD-1-Eu. The method, then:
Briefly, 1× Immuno buffer 1 was made. […] For each well in 384-well plate, serial diluted scFvs and regents were added according to manufacturer's recommended volume. Samples were incubated at room temperature for 1.5 hours then the fluorescent intensity was read with Biotek Neo2 plate reader using manufacture's instrument setting for the assay.

The target in assay [3] is T1, recombinant His-tagged human IL-2Rβ. Put plainly: ELISA, coated His-tagged IL-2Rβ. The method, then: For monovalent IL-2 Fc-fusion proteins, recombinant His-tagged human IL-2Rα and IL-2Rβ were added in 25 μL of 1×PBS to wells of 384-well plate and incubated overnight at 4° C. to coat the plates. Plates were washed three times with 0.05% Tween20/1×PBS. Plates were blocked with 100 μL of SuperBlock for 1 hr at RT and then washed 3 times with 0.05% Tween20/1×PBS. IL-2 mutants were diluted in 0.05% Tween 20/1×PBS from 1000 nM to 0 nM and added to plates for 2 hrs at room temperature. Plates were then washed 6 times with 0.05% Tween20/1×PBS. Anti-HisTag-HRP was diluted 1:5000 in 0.05% Tween20/1×PBS and added to plates for 1 hr at RT. Plates were then washed 6 times with 0.05% Tween 20/1×PBS, and TMB was added to develop blue color. Reactions were stopped with 2N […] and light absorbance at 450 nm was read on a BioTek plate reader. Absorbance versus IL-2 concentration is graphed for human IL-2Rα and IL-2Rβ. […]

Assay [4] has as its target PD-L1 on PD-L1 aAPC/CHOK1 cells (Promega J1250). Put plainly: cell-based or functional assay.
Assay [5] concerns the target T3, human PD-L1-HIS tagged recombinant protein (human, UniProt Q9NZQ7 19-238).
T3 construct: also called hPD-L1-HIS; PD-L1 HIS tagged protein
In words: SPR, Protein A capture, PD-L1-HIS analyte. The method, then: as §1

A further assay has as its target biotinylated PD-L1 (Homo sapiens (Human), UniProt Q9NZQ7 19-238, biotinylated; site not stated). In words: ELISA, anti-human Fc capture, biotinylated PD-L1. The method, then:
A 384 well plate was immobilized with anti-human Fc at final concentration of 2 μg/mL in 1×PBS in total volume of 25 μL per well. The plate was incubated overnight at 4C followed by blocking with 80 μL of superblock per well for 1 hour. […] In between each step, the plate was washed 3 times with 1×PBST in a plate washer. The plate was then developed with 25 μL of TMB substrate for 5 min and stopped by adding 25 μL of 2N sulfuric acid. The plate was read at OD450 nm Biotek plate reader and the binding correlation was plotted with Prism 8.1 software. The ELISA binding assays of the antibodies to IL-2Rα and IL-2Rβ receptors were performed as described in Example 6.
On the technique in general: In an ELISA, binding on a coated surface is turned into a signal by an enzyme label.

The target in a further assay is T4, human PD-L1-Fc (human, UniProt Q9NZQ7 19-238).
T4 construct: also called recombinant PD-L1-Fc fusion protein
In words: ELISA, coated PD-L1-Fc, anti-FLAG HRP. The method, then:
The plate was incubated overnight at 4° C. followed by blocking with 80 μL of superblock per well for 1 hour. […] In between each step, the plate was washed 3 times with 1×PBST in a plate washer. The plate was then developed with 20 μL of TMB substrate for 5 min and stopped by adding 20 μL of 2N sulfuric acid. The plate was read at OD450 nm Biotek plate reader and then plotted in Prism 8.1 software.

In assay [6] the target is T5, full-length human PD-L1 on K562 cells (human, UniProt Q9NZQ7 19-290).
T5 construct: also called PD-L1/K562; cell surface human PD-L1
Put plainly: FACS, PD-L1/K562 cells. The method, then:
Cells were spun down at 1200 rpm for 5 minutes at 4° C. to remove primary antibodies. Cells were then washed once with 200 μL of full medium per well. […] Samples were spun down at 1200 rpm for 5 minutes at 4° C. and washed twice with 200 μL of 1×PBS per well. Samples were reconstituted in 200 μL of 1×PBS and were read on Attune NxT cytometer.
On the technique in general: A flow cytometer gives signals particle by particle.

Assay [7] has as its target PD-L1 on PD-L1 aAPC/CHOK1 cells (Promega J1250). In words: cell-based or functional assay. The source holds these as a separate data set.
Assay [8] addresses T3, human PD-L1-HIS tagged recombinant …. In words: SPR, IgG on Protein A, PD-L1-HIS analyte. The method, then:
The assay was run with Biacore T200 control software version 2.0. For each cycle, 1 μg/mL of anti-hPD-L1-IgG was captured for 60 seconds at flow rate of 10 μl/min on flow cell 2 in 1×HBSP buffer on Protein A sensor chip. […] The flow cells were then regenerated with Glycine pH 2 for 60 seconds at flow rate of 30 μl/min. […] The specific binding response unit was derived from subtraction of binding to reference flow cell 1 from antibody captured flow cell 2.

B1: IL-2/anti-PD-L1 scFv Fc EP415/EP326 (bispecific antibody)
chain 1: not shown
chain 2: QVQLVQSGAEVKKPGSSVKVSCKASGGTFSSYAISWVRQAPGQGLEWMGGIIPIFGTANYAQKFQGRVTITADESTSTAYMELSSLRSEDTAVYYCARDKWYGSAWRGDYWGQGTLVTVSSGGGGSGGGGSGGGGSQSVLTQPPSASGTPGQRVTISCSGSYSNIGSNFVNWYQQLPGTAPKLLIHFNNQRPSGVPDRFSGSRSGTSASLAISGLQSEDEADYFCSTWDDSLKGPIFGGGTKLTVLDKTHTCPPCPAPEAAGGPSVFLFPPKPKDTLMISRTPEVTCVVVDVSHEDPEVKFNWYVDGVEVHNAKTKPREEQYNSTYRVVSVLTVLHQDWLNGKEYKCKVSNKALGAPIEKTISKAKGQPREPQVCTLPPSRDELTKNQVSLSCAVKGFYPSDIAVEWESNGQPENNYKTTPPVLDSDGSFKLVSKLTVDKSRWQQGNVFSCSVMHEALHNHYTQKSLSLSPGK
notes: IL2 EP337
Take B1: the Kd in assay [1] is 6.17 nM; in assay [5], 0.465 nM. This molecule displayed an IC50 in assay [2] of 2280 nM. Also, the EC50 amounted to 1.33 nM in [3] and 0.227 nM in the assay with biotinylated PD-L1. Further, the “NFAT reporter EC50” value in assay [4] was 3.46 nM.

B2: 2018EP161-G08 scFv (scFv, V domains shown)
VH: not shown
VL: VIWMTQSPSSLSASLGDRVTITCRASQSVSTYINWYQQKSGKGPKLLIFNASTLQSGVPSRFSGSGSGTDFTLTITSLQPDDSATYYCQQSYRVPLSFGGGTKVEIR
B2 came in with an EC50 with human PD-L1-Fc of 1.16 nM.

B3: 2018EP170-E06 scFv (scFv, V domains shown)
VH: EVQLVQSGAEVKKPGSSVKVSCKASGGTFSSYAISWVRQAPGQGLEWMGGIIPIFGTANYAQKFQGRVTITADESTSTAYMELSSLRSEDTAVYYCARDSRWGPAPHAFDIWGQGTMVTVSS
VL: QQSVLTQPASVSGSPGQSITISCTGTSSDIGSYNLVSWYQNHPGKAPKLILYEITKRPSGVSSRFSGSKSGNAASLTISGLQAEDEAEYFCCSYAGLSVFFVFGGGTKL
Turning to B3, the EC50 in [6] came out at 35.9 nM; with human PD-L1-Fc it was 158 nM.

B4: 2018EP280-E04 scFv (scFv, V domains shown)
VH: QVQLQQWGAGLLKPSETLSLTCAVYGGSFSGYYWSWIRQPPGKGLEWIGEINHIGSTNYNPSLKSRVTISVDTSNNQFSLKLSSVTAADTAVYYCARGRRLRYFDWAAYNWFDPWGQGTLVTVSS
VL: QSALTQDPAVSVALGQTVRISCQGDSLRSHYASWYQQKPGQAPVVVVYDNSDRPSGIPDRFSGSNSGNTATLTISRVEVGDEADYYCQVWDSSSDHYVFGTGTKVTVL
notes: not shown: scFv linker and domain order of the library scFv
B4: the IC50 in assay [2] is 38.5 nM. The “Jurkat NFAT reporter assay EC50” value in assay [7] came out at 133 nM. Moreover, in assay [6], the EC50 stood at 5.51 nM.

B5: anti-PD-L1 IgG antibody EP480/EP481 (2018EP164-F04) (antibody, V domains shown)
VH: QVQLQQWGAGLLKPSETLSLTCAVYGGSFSGYYWSWIRQPPGKGLEWIGEINHSGSTNYNPSLKSRVTISVDTSKNQFSLKLSSVTAADTAVYYCARGRRLRYFDWAAYNWFDPWGQGTLVTVSS
VL: QSALTQDPAVSVALGQTVRITCQGDSLRSHYASWYQQKPGQAPVVVVYDNSDRPSGIPDRFSGSNSGNTATLTISRVEVGDEADYYCQVWDSSSDHYVFGTGTKVEIRT
In the case of B5, in assay [8], the Kd is 5.73 nM.

B6: anti-PD-L1 IgG antibody 2018EP280-E04 (printed construct pair EP486/EP489) (antibody, V domains shown)
VH: QVQLQQWGAGLLKPSETLSLTCAVYGGSFSGYYWSWIRQPPGKGLEWIGEINHIGSTNYNPSLKSRVTISVDTSNNQFSLKLSSVTAADTAVYYCARGRRLRYFDWAAYNWFDPWGQGTLVTVSS
VL: QSALTQDPAVSVALGQTVRISCQGDSLRSHYASWYQQKPGQAPVVVVYDNSDRPSGIPDRFSGSNSGNTATLTISRVEVGDEADYYCQVWDSSSDHYVFGTGTKVTVLG
B6: the Kd in [8] was 2.76 nM.

B7: 2018EP280-E01 scFv (scFv, V domains shown)
VH: EVQLVESGGGLVKPGGSLRLSCAASGLTFSNAWMSWVRQAPGKGLEWVGRIKSKTDGGTTEYAAPVKGRFTISRDDSKNTLYLQMSSLKTEDTAVYYCTIVYYYDSSGPVFFQHWGQGTLVTVSS
VL: QSVLTQPPSASATPGQRVTISCSGSDSNIATNYVYWYQQFPGTAPKLLIYRNHQRPSGVPDRFSGSRSGTSASLAISGLRSEDEADYYCATWDDSVNSWVFGGGTKLTVL
notes: as for B4
Turning to B7, the IC50 in assay [2] stood at 76.8 nM. Further, the “Jurkat NFAT reporter assay EC50” value in assay [7] stood at 400 nM. Besides, the EC50 worked out at 10.8 nM in assay [6] and 8.1 nM with human PD-L1-Fc.

B8: anti-PD-L1 IgG antibody EP488/EP489 (2018EP171-H02) (antibody, V domains shown)
VH: QVQLVQSGAEVKKPGSSVKVSCKASGGTFSSYAISWVRQAPGQGLEWMGGIIPIFGTANYAQKFQGRVTITADESTSTAYMELSSLRSEDTAVYYCARDKGYGSGWRGDYWGQGTLVTVSS
VL: QSVLTQPPSASGTPGQRVTISCSGSYSNIGSNFVNWYQQLPGTAPKLLIHFNNQRPSGVPDRFSGSRSGTSASLAISGLQSEDEADYFCSTWDDSLKGPIFGGGTKLTVLG
On to B8, for which the Kd in assay [8] turned out to be 9.5 nM.
